Laboratory results from PMC5484490.
“And” between values parts separate entries of the source, which are not always exact repeats. Identical values can stand only once.

Assays:
[1] = biological target: wild type full length human Hsp90β with non-cleavable His6-tag (human); assay: SEC-MALS; SEC-MALLS on Superdex 200, 0.35 ml/min, 25 mM Na-phosphate pH 7.2, 150 mM NaCl, 5 mM DTT; 10 ul of ~29 g/l loaded; legend: 2.2 uM monomer concentration
[2] = biological target: wild type full length human Hsp90β with non-cleavable His6-tag (human); assay: AUC; sedimentation at 42,000 rpm, 20°C, 16 hours, 7.2 uM Hsp90 in 25 Na-phosphate pH 7.2, 150 mM NaCl, 150 mM KCl, 5 mM DTT, protease inhibitor; absorbance optics; SedFit

## wild type full length human Hsp90β with non-cleavable His6-tag (natural protein; other documents disagree on this pair)
[1]
  stoichiometry N: 2
[2]
  stoichiometry N: 2 and 4
